# B1: Serine protease HTRA3 (Homo sapiens), P83110-1 (parent)
# chain: MQARALLLAALAALALAREPPAAPCPARCDVSRCPSPRCPGGYVPDLCNCCLVCAASEGEPCGGPLDSPCGESLECVRGLCRCRWSHAVCGTDGHTYANVCALQAASRRALQLSGTPVRQLQKGACPLGLHQLSSPRYKFNFIADVVEKIAPAVVHIELFLRHPLFGRNVPLSSGSGFIMSEAGLIITNAHVVSSNSAAPGRQQLKVQLQNGDSYEATIKDIDKKSDIATIKIHPKKKLPVLLLGHSADLRPGEFVVAIGSPFALQNTVTTGIVSTAQREGRELGLRDSDMDYIQTDAIINYGNSGGPLVNLDGEVIGINTLKVTAGISFAIPSDRITRFLTEFQDKQIKDWKKRFIGIRMRTITPSLVDELKASNPDFPEVSSGIYVQEVAPNSPSQRGGIQDGDIIVKVNGRPLVDSSELQEAVLTESPLLLEVRRGNDDLLFSIAPEVVM
# B2: Serine protease HTRA3 (Homo sapiens), P83110-2 (parent)
# chain: MQARALLLAALAALALAREPPAAPCPARCDVSRCPSPRCPGGYVPDLCNCCLVCAASEGEPCGGPLDSPCGESLECVRGLCRCRWSHAVCGTDGHTYANVCALQAASRRALQLSGTPVRQLQKGACPLGLHQLSSPRYKFNFIADVVEKIAPAVVHIELFLRHPLFGRNVPLSSGSGFIMSEAGLIITNAHVVSSNSAAPGRQQLKVQLQNGDSYEATIKDIDKKSDIATIKIHPKKKLPVLLLGHSADLRPGEFVVAIGSPFALQNTVTTGIVSTAQREGRELGLRDSDMDYIQTDAIINYGNSGGPLVNLDGEVIGINTLKVTAGISFAIPSDRITRFLTEFQDKQIKAPSLAVH
# Variants of: B1
# Conditions: with tcpa_human TCP1, P17987
row,effect of a mutation on the interaction,Variant
1,decreasing interaction strength,S305A

# Variants of: B2
# Conditions: with tcpa_human TCP1, P17987
# Target sequence in this assay (P17987 whole entry): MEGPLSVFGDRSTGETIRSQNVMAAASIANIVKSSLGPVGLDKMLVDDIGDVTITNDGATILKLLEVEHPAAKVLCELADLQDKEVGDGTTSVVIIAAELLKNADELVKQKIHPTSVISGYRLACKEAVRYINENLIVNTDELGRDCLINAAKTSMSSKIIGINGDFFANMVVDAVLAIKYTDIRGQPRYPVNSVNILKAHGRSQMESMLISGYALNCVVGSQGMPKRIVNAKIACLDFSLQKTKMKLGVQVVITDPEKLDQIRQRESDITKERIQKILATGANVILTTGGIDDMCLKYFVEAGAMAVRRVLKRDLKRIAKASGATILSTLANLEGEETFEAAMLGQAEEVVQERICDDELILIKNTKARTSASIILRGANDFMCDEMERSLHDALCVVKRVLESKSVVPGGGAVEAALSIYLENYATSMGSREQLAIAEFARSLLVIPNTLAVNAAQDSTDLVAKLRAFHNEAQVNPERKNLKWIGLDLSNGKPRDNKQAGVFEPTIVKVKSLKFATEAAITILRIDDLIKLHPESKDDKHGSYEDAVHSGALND
row,effect of a mutation on the interaction,Variant
1,decreasing interaction strength,S305A

# — IntAct's records for PubMed 29477555
